Assays:
[1] = target: recombinant cynomolgus monkey CD3ε/δ heterodimer (cynomolgus monkey) (UniProt Q95LI5); experiment: ELISA, coated CD3ε/δ
[2] = target: recombinant human CD3ε/δ heterodimer (human) (UniProt P07766); experiment: ELISA, coated CD3ε/δ
[3] = target: recombinant cynomolgus monkey CD3ε/δ heterodimer (cynomolgus monkey) (UniProt Q95LI5); experiment: BLI (Octet), antigen on anti-Penta His sensor, antibody 50 nM
[4] = target: recombinant human CD3ε/δ heterodimer (human) (UniProt P07766); experiment: as above

Chain of recombinant human CD3ε/δ heterodimer (human) (P07766 23-126, stated change not applied, chain 1 of 2): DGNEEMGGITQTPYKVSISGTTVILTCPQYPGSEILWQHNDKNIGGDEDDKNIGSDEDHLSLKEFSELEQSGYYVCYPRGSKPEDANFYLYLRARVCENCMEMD
Chain of recombinant human CD3ε/δ heterodimer (human) (P04234 22-105, stated change not applied, chain 2 of 2, further chain): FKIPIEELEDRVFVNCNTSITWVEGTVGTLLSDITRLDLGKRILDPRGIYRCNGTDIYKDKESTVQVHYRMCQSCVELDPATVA
Chain of recombinant cynomolgus monkey CD3ε/δ heterodimer (cynomolgus monkey) (Q95LI5 22-117, stated change not applied, chain 1 of 2): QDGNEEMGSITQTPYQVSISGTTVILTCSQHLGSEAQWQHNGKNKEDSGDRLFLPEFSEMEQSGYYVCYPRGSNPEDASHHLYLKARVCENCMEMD
Chain of recombinant cynomolgus monkey CD3ε/δ heterodimer (cynomolgus monkey) (Q95LI8 22-105, stated change not applied, chain 2 of 2, further chain): as the sequence (P04234 22-105, stated change not applied, chain 2 of 2, further chain) above, with I5V, N15K, I20V, S32T, D33N, I34N, T64A, S74N, V83L counted along it

Row | Absorbance (450 nm) [1] | Absorbance (450 nm) [2] | Kd [3] [nM] | koff [3] [s⁻¹] | kon [3] [M⁻¹ s⁻¹] | Kd [4] [nM] | koff [4] [s⁻¹] | kon [4] [M⁻¹ s⁻¹] | Binder
1 | 2.55 | 1.31 | 20.5 | 0.00315 | 153000 | 19.5 | 0.00232 | 119000 | A07 (antibody, human IgG1, lambda, L234A L235A, V domains shown) VH: EVQLVESGGGLVQPGGSLKLSCAASGFTFNTYAMNWVRQASGKGLEWVGRIRSKYNNYATYYADSVKDRFTISRDDSKNTAYLQMNSLKTEDTAVYYCVRHGNFGNSYVSWFAYWGQGTLVTVSS VL: QAVVTQEPSLTVSPGGTVTLTCRSSTGAVTTSNYANWFQQKPGQAPRGLIGGTNKRAPWTPARFSGSLLGGKAALTLSGAQPEDEAEYYCALWYSNLWVFGGGTKLTVLG
2 | 2.75 | 2.49 | 1.33 | 0.000297 | 224000 | 1.04 | 0.000206 | 197000 | F15 (antibody, human IgG1, lambda, L234A L235A, V domains shown) VH: EVQLVESGGGLVQPGGSLKLSCAASGFTFNTYAMNWVRQASGKGLEWVARIRSKYNNYATYYADSVKDRFTISRDDSKNTLYLQMNSLKTEDTAVYYCVRHGNFGNSYVSWFAYWGQGTLVTVSS VL: QAVVTQEPSLTVSPGGTVTLTCRSSTGAVTTSNYANWVQQKPGQAPRGLIGGTNKRAPWTPARFSGSLLGGKAALTLSGAQPEDEAEYYCALWYSNLWVFGGGTKLTVLG
3 | 2.7 | 2.41 | 1.86 | 0.00054 | 290000 | 1.74 | 0.000392 | 225000 | E15 (antibody, human IgG1, lambda, L234A L235A, V domains shown) VH: EVQLVESGGGLVQPGGSLKLSCAASGFTFNTYAMNWVRQASGKGLEWVARIRSKYNNYATYYADSVKDRFTISRDDSKNTAYLQMNSLKTEDTAVYYCVRHGNFGNSYVSWFAYWGQGTLVTVSS VL: QAVVTQEPSLTVSPGGTVTLTCRSSTGAVTTSNYANWVQQKPGQAPRGLIGGTNKRAPWTPARFSGSLLGGKAALTLSGAQPEDEAEYYCALWYSNLWVFGGGTKLTVLG
4 | 2.85 | 2.46 | 1.37 | 0.000253 | 185000 | 0.852 | 0.00012 | 141000 | F16 (antibody, human IgG1, lambda, L234A L235A, V domains shown) VH: EVQLVESGGGLVQPGGSLKLSCAASGFTFNTYAMNWVRQASGKGLEWVARIRSKYNNYATYYADSVKDRFTISRDDSKNTLYLQMNSLKTEDTAVYYCVRHGNFGNSYVSWFAYWGQGTLVTVSS VL: QAVVTQEPSLTVSPGGTVTLTCRSSTGAVTTSNYANWVQQKPGQAPRGLIGGTNKRAPWTPARFSGSLLGDKAALTLSGAQPEDEAEYYCALWYSNLWVFGGGTKLTVLG
5 | 2.34 | 0.875 | 21.9 | 0.00321 | 147000 | 22.2 | 0.00226 | 102000 | A08 (antibody, human IgG1, lambda, L234A L235A, V domains shown) VH: EVQLVESGGGLVQPGGSLKLSCAASGFTFNTYAMNWVRQASGKGLEWVGRIRSKYNNYATYYADSVKDRFTISRDDSKNTAYLQMNSLKTEDTAVYYCVRHGNFGNSYVSWFAYWGQGTLVTVSS VL: QAVVTQEPSLTVSPGGTVTLTCRSSTGAVTTSNYANWFQQKPGQAPRGLIGGTNKRAPWTPARFSGSLLGDKAALTLSGAQPEDEAEYYCALWYSNLWVFGGGTKLTVLG
6 | 2.74 | 2.4 | 2.19 | 0.000482 | 220000 | 1.76 | 0.000284 | 162000 | E16 (antibody, human IgG1, lambda, L234A L235A, V domains shown) VH: EVQLVESGGGLVQPGGSLKLSCAASGFTFNTYAMNWVRQASGKGLEWVARIRSKYNNYATYYADSVKDRFTISRDDSKNTAYLQMNSLKTEDTAVYYCVRHGNFGNSYVSWFAYWGQGTLVTVSS VL: QAVVTQEPSLTVSPGGTVTLTCRSSTGAVTTSNYANWVQQKPGQAPRGLIGGTNKRAPWTPARFSGSLLGDKAALTLSGAQPEDEAEYYCALWYSNLWVFGGGTKLTVLG

From patent US20200317779A1
